B1: BBSome-interacting protein 1 (Homo sapiens), A8MTZ0 (parent)
chain: MLKAAAKRPELSGKNTISNNSDMAEVKSMFREVLPKQGPLFVEDIMTMVLCKPKLLPLKSLTLEKLEKMHQAAQNTIRQQEMAEKDQRQITH
partner: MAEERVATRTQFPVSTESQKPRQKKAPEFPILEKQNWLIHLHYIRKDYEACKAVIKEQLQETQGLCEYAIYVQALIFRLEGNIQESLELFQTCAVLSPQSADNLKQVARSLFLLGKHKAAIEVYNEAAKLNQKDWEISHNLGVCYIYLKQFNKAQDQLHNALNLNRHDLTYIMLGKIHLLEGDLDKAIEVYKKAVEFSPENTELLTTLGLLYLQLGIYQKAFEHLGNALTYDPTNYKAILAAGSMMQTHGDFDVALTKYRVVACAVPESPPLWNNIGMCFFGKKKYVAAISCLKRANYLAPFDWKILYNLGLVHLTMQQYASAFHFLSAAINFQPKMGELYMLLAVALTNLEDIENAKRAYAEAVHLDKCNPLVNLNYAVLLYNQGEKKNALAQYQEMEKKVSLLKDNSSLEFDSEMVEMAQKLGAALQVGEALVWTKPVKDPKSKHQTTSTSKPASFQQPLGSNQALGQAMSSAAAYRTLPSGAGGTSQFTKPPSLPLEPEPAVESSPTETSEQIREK

Variants of: B1
Details: with bbs4_human BBS4, Q96RK4

Effect of a mutation on the interaction, with no effect:
MLKAAAERPELSGKNTISNNSDMAEVKSMFREVLPKQGPLFVEDIMTMVLCKPKLLPLKSLTLEKLEKMHQAAQNTIRQQEMAEKDQRQITH [K7E]
MLKAAAARPELSGKNTISNNSDMAEVKSMFREVLPKQGPLFVEDIMTMVLCKPKLLPLKSLTLEKLEKMHQAAQNTIRQQEMAEKDQRQITH [K7A]
MLKAAAKREELSGKNTISNNSDMAEVKSMFREVLPKQGPLFVEDIMTMVLCKPKLLPLKSLTLEKLEKMHQAAQNTIRQQEMAEKDQRQITH [P9E]
MLKAAAKRAELSGKNTISNNSDMAEVKSMFREVLPKQGPLFVEDIMTMVLCKPKLLPLKSLTLEKLEKMHQAAQNTIRQQEMAEKDQRQITH [P9A]
MLKAAAKRKELSGKNTISNNSDMAEVKSMFREVLPKQGPLFVEDIMTMVLCKPKLLPLKSLTLEKLEKMHQAAQNTIRQQEMAEKDQRQITH [P9K]
MLEAAAKRPELSGKNTISNNSDMAEVKSMFREVLPKQGPLFVEDIMTMVLCKPKLLPLKSLTLEKLEKMHQAAQNTIRQQEMAEKDQRQITH [K3E]
MLAAAAKRPELSGKNTISNNSDMAEVKSMFREVLPKQGPLFVEDIMTMVLCKPKLLPLKSLTLEKLEKMHQAAQNTIRQQEMAEKDQRQITH [K3A]
MLKAAAKEPELSGKNTISNNSDMAEVKSMFREVLPKQGPLFVEDIMTMVLCKPKLLPLKSLTLEKLEKMHQAAQNTIRQQEMAEKDQRQITH [R8E]
MLKAAAKAPELSGKNTISNNSDMAEVKSMFREVLPKQGPLFVEDIMTMVLCKPKLLPLKSLTLEKLEKMHQAAQNTIRQQEMAEKDQRQITH [R8A]
MLKAAAKKPELSGKNTISNNSDMAEVKSMFREVLPKQGPLFVEDIMTMVLCKPKLLPLKSLTLEKLEKMHQAAQNTIRQQEMAEKDQRQITH [R8K]
MLKAAAKRPEESGKNTISNNSDMAEVKSMFREVLPKQGPLFVEDIMTMVLCKPKLLPLKSLTLEKLEKMHQAAQNTIRQQEMAEKDQRQITH [L11E]
MLKAAAKRPEKSGKNTISNNSDMAEVKSMFREVLPKQGPLFVEDIMTMVLCKPKLLPLKSLTLEKLEKMHQAAQNTIRQQEMAEKDQRQITH [L11K]
MLKAAAKRPEASGKNTISNNSDMAEVKSMFREVLPKQGPLFVEDIMTMVLCKPKLLPLKSLTLEKLEKMHQAAQNTIRQQEMAEKDQRQITH [L11A]
KLKAAAKRPELSGKNTISNNSDMAEVKSMFREVLPKQGPLFVEDIMTMVLCKPKLLPLKSLTLEKLEKMHQAAQNTIRQQEMAEKDQRQITH [M1K]
ELKAAAKRPELSGKNTISNNSDMAEVKSMFREVLPKQGPLFVEDIMTMVLCKPKLLPLKSLTLEKLEKMHQAAQNTIRQQEMAEKDQRQITH [M1E]
ALKAAAKRPELSGKNTISNNSDMAEVKSMFREVLPKQGPLFVEDIMTMVLCKPKLLPLKSLTLEKLEKMHQAAQNTIRQQEMAEKDQRQITH [M1A]
MLKAAAKRPKLSGKNTISNNSDMAEVKSMFREVLPKQGPLFVEDIMTMVLCKPKLLPLKSLTLEKLEKMHQAAQNTIRQQEMAEKDQRQITH [E10K]
MLKAAAKRPALSGKNTISNNSDMAEVKSMFREVLPKQGPLFVEDIMTMVLCKPKLLPLKSLTLEKLEKMHQAAQNTIRQQEMAEKDQRQITH [E10A]
MEKAAAKRPELSGKNTISNNSDMAEVKSMFREVLPKQGPLFVEDIMTMVLCKPKLLPLKSLTLEKLEKMHQAAQNTIRQQEMAEKDQRQITH [L2E]
MKKAAAKRPELSGKNTISNNSDMAEVKSMFREVLPKQGPLFVEDIMTMVLCKPKLLPLKSLTLEKLEKMHQAAQNTIRQQEMAEKDQRQITH [L2K]
MAKAAAKRPELSGKNTISNNSDMAEVKSMFREVLPKQGPLFVEDIMTMVLCKPKLLPLKSLTLEKLEKMHQAAQNTIRQQEMAEKDQRQITH [L2A]
MLKAEAKRPELSGKNTISNNSDMAEVKSMFREVLPKQGPLFVEDIMTMVLCKPKLLPLKSLTLEKLEKMHQAAQNTIRQQEMAEKDQRQITH [A5E]
MLKAKAKRPELSGKNTISNNSDMAEVKSMFREVLPKQGPLFVEDIMTMVLCKPKLLPLKSLTLEKLEKMHQAAQNTIRQQEMAEKDQRQITH [A5K]
MLKAAEKRPELSGKNTISNNSDMAEVKSMFREVLPKQGPLFVEDIMTMVLCKPKLLPLKSLTLEKLEKMHQAAQNTIRQQEMAEKDQRQITH [A6E]
MLKAAKKRPELSGKNTISNNSDMAEVKSMFREVLPKQGPLFVEDIMTMVLCKPKLLPLKSLTLEKLEKMHQAAQNTIRQQEMAEKDQRQITH [A6K]
MLKEAAKRPELSGKNTISNNSDMAEVKSMFREVLPKQGPLFVEDIMTMVLCKPKLLPLKSLTLEKLEKMHQAAQNTIRQQEMAEKDQRQITH [A4E]
MLKKAAKRPELSGKNTISNNSDMAEVKSMFREVLPKQGPLFVEDIMTMVLCKPKLLPLKSLTLEKLEKMHQAAQNTIRQQEMAEKDQRQITH [A4K]

— IntAct's records for PubMed 29039417
